# Tests used:
# [1] = target: Ezrin (human) (UniProt P15311); assay: Vidas sandwich ELISA, 1/50 Caco2 lysate; negative control as capture, detection 4G11B5-biotin
# [2] = target: Ezrin (human) (UniProt P15311); assay: Vidas sandwich ELISA, 1/50 Caco2 lysate; negative control as capture, detection 4A7A6C1-biotin
# Chain of UniProt P15311 (P15311 whole entry): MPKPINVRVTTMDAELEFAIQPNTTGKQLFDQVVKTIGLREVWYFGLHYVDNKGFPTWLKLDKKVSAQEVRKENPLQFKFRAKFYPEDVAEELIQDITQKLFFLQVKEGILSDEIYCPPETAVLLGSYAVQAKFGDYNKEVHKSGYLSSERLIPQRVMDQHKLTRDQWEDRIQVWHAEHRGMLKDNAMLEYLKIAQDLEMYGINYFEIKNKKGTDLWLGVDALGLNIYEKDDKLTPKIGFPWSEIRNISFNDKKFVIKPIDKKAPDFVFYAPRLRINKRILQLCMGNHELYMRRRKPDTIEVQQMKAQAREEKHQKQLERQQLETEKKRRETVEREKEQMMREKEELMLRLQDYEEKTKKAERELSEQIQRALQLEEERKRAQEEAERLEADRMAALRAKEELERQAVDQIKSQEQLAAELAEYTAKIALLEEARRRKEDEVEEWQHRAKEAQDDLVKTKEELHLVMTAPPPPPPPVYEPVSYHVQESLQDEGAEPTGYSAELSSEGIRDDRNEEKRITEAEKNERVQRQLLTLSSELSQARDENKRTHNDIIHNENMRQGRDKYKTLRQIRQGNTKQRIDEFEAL
substance,measurement,setting,value
Negative control,Vidas sandwich immunoassay signal,[1],2.5 RFV
same,Vidas sandwich immunoassay signal,[2],3 RFV

# From patent publication US20100136539A1
